Patent US8586538B2, “Method of treating a patient suffering from a bleeding disorder comprising administering an antibody against the A3-C1 of FVIII” (Stichting Sanquin Bloedvoorziening, priority 2002, dated 2013)
Several values for one entry are separate records, joined by “and”; a condition that tells them apart may be missing. Equal entries are not always repeated. Blank lines part the entries; values can stand above or below the molecule they belong to. No end group written: not given here.

Legend:
[1] = target: T1, interaction between FVIII light chain and LRP cluster II (Homo sapiens, UniProt Q07954); experiment: Solid-phase competition: FVIII light chain binding to immobilized LRP cluster II; conditions: FVIII light chain 25 nM; peptide 0-1 mM; 2 h at 37° C
T1 construct: Recombinant LRP clusters II or IV (1 pmol/well) were adsorbed onto microtiter wells; made in house; host or cells: LRP cluster II: BHK cells; FVIII light chain: plasma-derived
T1 sequence (Q07954 803-1182): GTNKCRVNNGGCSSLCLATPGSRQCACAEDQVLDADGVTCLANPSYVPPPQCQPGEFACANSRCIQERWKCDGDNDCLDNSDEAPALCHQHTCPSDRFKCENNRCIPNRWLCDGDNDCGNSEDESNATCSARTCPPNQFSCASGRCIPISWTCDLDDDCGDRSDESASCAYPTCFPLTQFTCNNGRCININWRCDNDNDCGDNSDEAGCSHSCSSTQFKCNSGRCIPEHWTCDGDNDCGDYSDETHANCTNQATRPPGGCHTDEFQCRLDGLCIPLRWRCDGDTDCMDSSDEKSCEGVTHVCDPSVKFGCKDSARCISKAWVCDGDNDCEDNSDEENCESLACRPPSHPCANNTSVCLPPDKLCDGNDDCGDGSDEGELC
Description: (§1) FIG. 4. Effect of scFv antibody fragments on the interaction between FVIII light chain and LRP. A, FVIII light chain (LCh) (25 nM) was incubated with immobilized LRP cluster II (1 pmol/well) in a volume of 50 μl in 150 mM NaCl, 5 mM CaCl2, 1% (w/v) HSA, 0.1% Tween® 20, and 50 mM Tris (pH 7.4) in the presence of various concentrations (0-100 nM) of scFv KM41 (closed circles) or scFv KM36 (open circles) for 2 h at 37° C. After washing with the same buffer, bound FVIII light chain was quantified by incubation with peroxidase-conjugated anti-FVIII antibody CLB-CAg 12 for 15 min at 37° C. Residual binding is expressed as the percentage of binding in the absence of competitor and is corrected for nonspecific binding (less than 5% relative to binding to LRP cluster II-immobilized wells). Data represent the mean±S.D. of three experiments. B, FVIII light chain (50 nM) was incubated with immobilized LRP (16 fmol/mm^2) as described in the legend of FIG. 1. Binding was assessed in the absence (curve 1) or in the presence of increasing concentrations of scFv KM41 (20, 60, 300, 500 nM, curves 2-5, respectively). Complexes were allowed to form for 30 min before SPR analysis.
(§2) FIG. 5. Effect of scFv KM33 on the interaction between FVIII light chain and LRP. FVIII light chain (LCh) (25 nM) was incubated with immobilized LRP cluster II (1 pmol/well) in a volume of 50 μl in 150 mM NaCl, 5 mM CaCl2, 1% (w/v) HSA, 0.1% Tween® 20, and 50 mM Tris (pH 7.4) in the presence of various concentrations (0-30 nM) of scFv KM36 (open circles) or scFv KM33 (closed circles) for 2 h at 37° C. After washing with the same buffer, bound FVIII Light chain was quantified by incubation with peroxidase-conjugated anti-FVIII antibody CLB-CAg 12 for 15 min at 37° C. Residual binding is expressed as the percentage of binding in the absence of competitor and is corrected for nonspecific binding (less than 5% relative to binding to cluster-coated wells). Data represent the mean±S.D. of three experiments.
(§3) Recombinant LRP clusters II or IV (1 pmol/well) were adsorbed onto microtiter wells in 50 mM NaHCO3 (pH 9.8) in a volume of 50 μl for 16 h at 4° C. Wells were blocked with 2% (w/v) HSA, 150 mM NaCl, 5 mM CaCl2, and 50 mM Tris (pH 7.4) in a volume of 200 μl for 1 h at 37° C. After three rapid washes (less than 5 seconds each) with 150 mM NaCl, 5 mM CaCl2, 0.1% (v/v) Tween® 20, and 50 mM Tris (pH 7.4), FVIII light chain or its derivatives were incubated at various concentrations in a volume of 50 μl in a buffer containing 150 mM NaCl, 5 mM CaCl2, 1% (w/v) HSA, 0.1% (v/v) Tween® 20, and 50 mM Tris (pH 7.4) for 2 h. at 37° C. Bound ligand was detected by incubating with peroxidase-conjugated monoclonal antibody CLB-CAg 12 in the same buffer for 15 min at 37° C. […] In competition experiments, FVIII light chain (25 nM) was incubated with wells containing immobilized LRP clusters, either in the presence or absence of serial dilutions of competitor in a volume of 50 μl for 2 h at 37° C. Residual FVIII binding was detected as described above. Data were corrected for binding to empty microtiter wells, which was less than 5% relative to binding to wells containing immobilized LRP clusters.
(§4) (Note to Table II: Effect of FVIII a3-A3-C1 fragment derived synthetic peptides on the interaction between FVIII light chain and LRP cluster II. FVIII light chain (25 nM) was incubated with immobilized LRP cluster II (1 pmol/well) in a volume of 50 μl in 150 mM NaCl, 5 mM CaCl2, 1% (w/v) HSA, 0.1% Tween® 20, and 50 mM Tris (pH 7.4) in the presence or absence of various concentrations of synthetic peptide (0-1 mM) for 2 h at 37° C. After washing with the same buffer, bound FVIII light chain was quantified by incubation with peroxidase-conjugated anti-FVIII antibody CLB-CAg 12 for 15 min at 37° C. Half-maximum inhibition constants (IC50) represent the mean values±S.D. of three experiments.)

[2] = target: T2, interaction between FVIII light chain and LRP cluster IV (Homo sapiens, UniProt P00451); experiment: Solid-phase competition: FVIII light chain binding to immobilized LRP cluster IV; conditions: FVIII light chain 25 nM; competitor 0-600 nM
T2 construct: made in house; host or cells: LRP cluster IV: BHK cells; FVIII light chain: plasma-derived
T2 sequence (P00451 1668-2351 limits assumed): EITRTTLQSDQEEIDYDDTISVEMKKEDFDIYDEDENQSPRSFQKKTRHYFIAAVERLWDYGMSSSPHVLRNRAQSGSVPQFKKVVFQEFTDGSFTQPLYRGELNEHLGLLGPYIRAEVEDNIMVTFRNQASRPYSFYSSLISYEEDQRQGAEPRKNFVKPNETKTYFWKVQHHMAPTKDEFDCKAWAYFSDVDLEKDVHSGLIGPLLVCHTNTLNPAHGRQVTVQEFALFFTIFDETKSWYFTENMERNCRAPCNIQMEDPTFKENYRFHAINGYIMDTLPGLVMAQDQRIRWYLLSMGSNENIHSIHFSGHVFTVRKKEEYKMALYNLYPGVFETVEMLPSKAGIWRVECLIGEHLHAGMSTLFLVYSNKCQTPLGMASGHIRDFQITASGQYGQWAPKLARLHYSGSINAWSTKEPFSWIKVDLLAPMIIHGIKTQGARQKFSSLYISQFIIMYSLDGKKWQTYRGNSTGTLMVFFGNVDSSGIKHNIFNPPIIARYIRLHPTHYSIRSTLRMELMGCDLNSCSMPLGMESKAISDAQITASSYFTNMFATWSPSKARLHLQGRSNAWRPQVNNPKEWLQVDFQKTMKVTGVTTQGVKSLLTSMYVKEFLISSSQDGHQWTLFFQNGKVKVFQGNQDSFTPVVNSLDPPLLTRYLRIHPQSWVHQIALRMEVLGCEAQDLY
Description: FIG. 2. Binding of FVIII light chain to recombinant LRP fragments. FVIII light chain (LCh) (25 nM) was incubated with immobilized LRP cluster IV (1 pmol/well) in a volume of 50 μl in 150 mM NaCl, 5 mM CaCl2, 1% (w/v) HSA, 0.1% Tween® 20, and 50 mM Tris (pH 7.4) in the presence or absence of various concentrations of recombinant LRP cluster II (0-600 nM) for 2 h at 37° C. After washing with the same buffer, bound FVIII light chain was quantified by incubation with peroxidase-conjugated anti-FVIII antibody CLB-CAg 12 for 15 min at 37° C. Residual binding is expressed as the percentage of binding in the absence of competitor and is corrected for nonspecific binding (less than 5% relative to binding to LRP cluster II-immobilized wells). Inset, serial dilutions of FVIII light chain were incubated with immobilized LRP cluster II (1 pmol/well) in a volume of 50 μl in 150 mM NaCl, 5 mM CaCl2, 1% (w/v) HSA, 0.1% Tween® 20, and 50 mM Tris (pH 7.4) for 2 h at 37° C. After washing with the same buffer, bound FVIII light chain was quantfied as described above. […]
Recombinant LRP clusters II or IV (1 pmol/well) were adsorbed onto microtiter wells in 50 mM NaHCO3 (pH 9.8) in a volume of 50 μl for 16 h at 4° C. […] Bound ligand was detected by incubating with peroxidase-conjugated monoclonal antibody CLB-CAg 12 in the same buffer for 15 min at 37° C. […] Residual FVIII binding was detected as described above. […]

FVIIIa-FIXa complex = FVIIIa-FIXa complex (Homo sapiens, UniProt P00451+P00740); conditions: by interfering with the assembly of the FVIIIa-FIXa complex; cited from earlier work
[3] = Factor VIII clearance and recovery in vWF knock out mice; format: in vivo; conditions: for Factor VIII activity in plasma: Factor VIII 200 U/kg
Description: FIG. 8. According to Example II, mice were injected either with human FVIII alone, human FVIII in the presence of a control scFv-fragment (KM38) and with human FVIII in the presence of a scFv-fragment (KM33) specifically interfering with the putative FVIII-LRP interaction.
Experimental procedure: vWF knock out mice (decreased endogenous Factor VIII, 20% Factor VIII compared to healthy animals) were treated with human recombinant Factor VIII (Recombinate™; 200 U/kg) and recombinant scFv (KM33) in excess. (30 nM versus 3 nM Factor VIII in plasma). In control experiments, Factor VIII and a control scFv fragment (KM38) binding to a different domain as the proposed LRP binding
site on the Factor VIII molecule were used in the same concentrations. Infusion of recombinant FVIII without any addition was used to monitor the clearance of Factor VIII in this model system.
At defined time points (15, 30, 60, 120 and 240 minutes) after injection, blood was collected by heart puncture, plasma was subsequently isolated, shock frozen and analyzed for Factor VIII activity. Ten mice were used at each time point, plasma was diluted to 3 concentrations (1:20, 1:60 and 1:100) and analyzed in duplicate. Factor VIII levels were quantified by performing a quantitative ELISA.

[4] = target: T3, interaction between FVIII light chain and LRP cluster II (Homo sapiens, UniProt P00451); experiment: Solid-phase competition: FVIII light chain binding to immobilized LRP cluster II; conditions: FVIII light chain 25 nM
T3 construct: Recombinant LRP clusters II or IV (1 pmol/well) were adsorbed onto microtiter wells; made in house; host or cells: LRP cluster II: BHK cells; FVIII light chain: plasma-derived
T3 sequence (P00451 1668-2351): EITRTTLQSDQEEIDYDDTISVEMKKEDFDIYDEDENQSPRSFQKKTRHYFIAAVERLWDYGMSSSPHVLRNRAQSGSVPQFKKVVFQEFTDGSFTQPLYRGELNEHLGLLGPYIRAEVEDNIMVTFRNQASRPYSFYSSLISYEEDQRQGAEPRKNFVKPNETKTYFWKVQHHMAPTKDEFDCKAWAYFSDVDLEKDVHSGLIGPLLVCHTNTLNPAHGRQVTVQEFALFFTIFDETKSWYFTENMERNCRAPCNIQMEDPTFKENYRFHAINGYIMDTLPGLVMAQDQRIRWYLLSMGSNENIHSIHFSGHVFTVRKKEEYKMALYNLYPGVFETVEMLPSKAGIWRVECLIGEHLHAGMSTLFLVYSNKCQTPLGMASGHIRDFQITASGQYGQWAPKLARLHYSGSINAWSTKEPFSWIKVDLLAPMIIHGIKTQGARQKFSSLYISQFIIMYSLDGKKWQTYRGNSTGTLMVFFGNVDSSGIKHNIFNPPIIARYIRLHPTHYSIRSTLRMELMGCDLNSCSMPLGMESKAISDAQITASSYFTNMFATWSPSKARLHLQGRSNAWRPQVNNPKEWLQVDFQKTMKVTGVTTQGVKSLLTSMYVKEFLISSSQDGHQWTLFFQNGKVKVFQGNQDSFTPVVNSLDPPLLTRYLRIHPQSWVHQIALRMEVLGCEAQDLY
Description: as §1, §2, §3, §4

Chain of FVIIIa-FIXa complex (P00740 47-191 limits assumed, one chain of several): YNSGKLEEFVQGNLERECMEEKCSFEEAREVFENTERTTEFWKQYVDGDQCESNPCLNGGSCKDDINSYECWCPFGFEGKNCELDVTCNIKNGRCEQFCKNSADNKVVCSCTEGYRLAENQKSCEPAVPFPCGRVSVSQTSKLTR

Molecule: LRP cluster II: recombinant LRP ligand binding cluster II expressed in BHK cells
Inhibition of FVIII light chain binding to immobilized LRP cluster IV [2]: dose-dependent inhibition

Molecule: YFWKVQHHMAPTKDEFDCKA [Residues 1815-1834]
IC50 [1]: ~16.8 µM and 16.8 µM | Inhibition of FVIII procoagulant activity (FVIIIa-FIXa complex): effective inhibitors

Second part, led by results:

IC50 [1]: > 1000 µM
Molecule: HMAPTKDEFDCKA [Residues 1822-1834]

IC50 [1]: > 1000 µM
Molecule: KLARLHYSG [Residues 2049-2057]

Effect on binding of FVIII light chain to immobilized LRP cluster II [4]: effectively inhibited
B1: scFv KM33: scFv antibody fragment against FVIII light chain; does not require A3 domain region 1778-1818; LRP blocking (protein)
scFv: EVQLVESGGGVVQPGRSLRLSCVDSGLTFSSYGMHWVRQAPGAGLEWVAVISYDGNDKYYADSVKGRFAISRDNAKNTLYLQMNSLTIEDTAVYYCAKDLIESNIAEAFWGQGTLVTVSSGGGGSGGGGSGGGGSDIQMTQSPSSLSASVGDTVTIACRASRDIRNDLAWYQQKPGKAPKLLIYATSRLQSGVPSRFSGSGSFTDFTLTINSLQPDDSATYYCLQDSDYPLTFGGGTKVDIKRAAAEQKLISEEDLNGAAHHHHHH
Factor VIII recovery ([3]; 15 minutes after injection): 30.4% | Factor VIII activity in plasma ([3]; 15 minutes after injection): about 0.8 U/mL | Factor VIII recovery ([3]; 30 minutes after injection): 20% | Factor VIII activity in plasma ([3]; 30 minutes after injection): 0.5 U/mL | Factor VIII recovery ([3]; 60 minutes after injection): 14% | Factor VIII activity in plasma ([3]; 60 minutes after injection): 0.35 U/mL | FVIII activity levels ([3]; four hours after injection): reached the background activity of mouse Factor VIII | Inhibition of FVIII procoagulant activity (FVIIIa-FIXa complex): effective inhibitors
